The target of test [1] is unacylated ghrelin (UAG) (mouse) (UniProt Q9EQX0). Briefly: cell-based or functional assay.
The target of test [2] is acylated ghrelin (AG) (mouse) (UniProt Q9EQX0). Briefly: cell-based or functional assay.

Take “GHSR/Fc (Nt-EC1-EC2 of mouse GHS-R1a fused with a mouse IgG constant region (Fc)) (Fc fusion)”: the levels of total ghrelin (primarily UAG) in circulation of mice expressing GHSR/Fc (plasma radioimmunoassay) in test [1] amounted to 141 pg/mL. In test [2], the levels of AG in circulation of mice expressing GHSR/Fc (plasma enzyme-linked immunoassay) worked out at 1.41 pg/mL.

For the origin of these results see patent US20160130322A1.
